The target in the experiment is Fas (Receptor) on the Fas-expressing human ovarian cancer cell line NOS4 (human) (UniProt P25445). The experiment is described as follows: cell-based or functional assay.

Ends that are not written are not given here.

Fas (Receptor) on the Fas-expressing human ovarian cancer cell line NOS4 (human), sequence (P25445 26-335): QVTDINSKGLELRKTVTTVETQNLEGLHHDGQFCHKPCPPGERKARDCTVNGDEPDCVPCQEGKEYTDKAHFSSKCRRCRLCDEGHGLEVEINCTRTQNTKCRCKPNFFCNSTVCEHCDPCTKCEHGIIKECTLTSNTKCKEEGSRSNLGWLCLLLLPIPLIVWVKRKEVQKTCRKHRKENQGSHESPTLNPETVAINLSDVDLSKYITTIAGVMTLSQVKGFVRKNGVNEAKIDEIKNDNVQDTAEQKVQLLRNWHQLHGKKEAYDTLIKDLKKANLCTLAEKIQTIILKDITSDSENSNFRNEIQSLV

B1: (FLLP-1)4-MAP8 (four WEWT peptides bound to MAP-8) (peptide, part only)
chain: WEWT
modifications: also: tetramer: each copy bound to one of 4 branches of MAP-8, remaining four amino groups of MAP-8 protected
Take B1: the Apoptosis induction Activity (%) of NOS4 cells at 0.01 µg/ml amounted to 7%, the Apoptosis induction Activity (%) of NOS4 cells at 0.03 µg/ml was determined as 15%, the Apoptosis induction Activity (%) of NOS4 cells at 0.1 µg/ml stood at 48% and the Apoptosis induction Activity (%) of NOS4 cells at 0.3 µg/ml stood at 67%. The molecule also registered an Apoptosis induction Activity (%) of NOS4 cells at 1 µg/ml of 78%.

B2: Fas complementary peptide tetramer [(FRP-2)4-MAP] (peptide, part only)
chain: EPPMTFISIHTMCH
modifications: also: tetramer: each copy bound to one of four branches of a lysine polymer (MAP)
B2 gave an apoptosis induction potential relative to the monomer FRP-2 of 30 times and an apoptosis of NOS4 cells, same method as Test Example 1, at 5 mg/ml as printed of 50%.
